# From the supplement of paper PMC10567573
# B1: ZNF649 (parent)
# chain: DECEKAYFYMSCLVKHKRIHSREK
# B2: CCND1 (parent)
# chain: PEAEENKQIIRKHAQTFVALCATD
# Variants of: B1
# Experiment: protein stability index of a GFP-peptide fusion (GPS, HEK-293T) (PSI 1-6); higher = more stable
# Settings: c terminus: a fixed tail appended
# 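Further: lentivirally expressed fusions sorted by FACS into six bins by GFP to DsRed ratio, PSI derived from sequencing read proportions per bin multiplied by bin number.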
row,Variant,protein stability index
1,K24W,1.92
2,K24H,2.72
3,K24V,2.05
4,K24Y,2.05
5,K24S,3.13
6,K24R,2.42
7,K24L,1.75
8,K24N,2.54
9,K24C,1.55
10,K24M,1.97
11,K24F,1.85
12,K24T,1.98
13,K24A,2.1
14,K24I,2.12
15,K24G,2.31
16,K24P,2.46
17,K24D,3.02
18,K24Q,2.56
19,K24E,3.45
20,H20G,2.55
21,H20L,2.48
22,H20N,2.57
23,H20I,2.09
24,H20D,3.33
25,H20C,2.92

row,Variant,protein stability index
1,H20P,3.15
2,H20W,2.4
3,H20V,2.24
4,H20A,2.22
5,H20M,2.1
6,H20Y,2.59
7,H20K,2.6
8,H20R,2.59
9,H20Q,2.6
10,H20F,2.88
11,H20T,2.12
12,H20E,3.6
13,H20S,2.37
14,K17C,1.83
15,K17D,2.85
16,K17S,2.19
17,K17R,2.39
18,K17Q,2.3
19,K17V,2.19
20,K17I,1.68
21,K17N,2.45
22,K17T,2.27
23,K17F,2.83
24,K17L,1.91
25,K17M,1.61

row,Variant,protein stability index
1,K17E,2.54
2,K17W,2
3,K17P,2.35
4,K17Y,2.14
5,K17H,2.05
6,K17A,2.94
7,K17G,2.42
8,H16K,2.65
9,H16V,1.61
10,H16I,1.69
11,H16G,3.24
12,H16S,3.06
13,H16F,1.79
14,H16M,1.98
15,H16L,1.84
16,H16R,2.82
17,H16T,2.56
18,H16W,2.29
19,H16E,3.53
20,H16A,2.51
21,H16N,2.75
22,H16D,3.25
23,H16Y,2.11
24,H16Q,2.64
25,H16P,2.92

row,Variant,protein stability index
1,H16C,1.76
2,E23I,2.42
3,E23C,3.15
4,E23D,2.81
5,E23M,1.8
6,E23N,2.38
7,E23P,2.1
8,E23G,2.62
9,E23A,3.48
10,E23R,3.04
11,E23Q,2.99
12,E23T,2.48
13,E23K,2.7
14,E23L,2.99
15,E23S,2.23
16,E23W,2.23
17,E23F,2.15
18,E23V,2.2
19,E23H,2.36
20,E23Y,2.17
21,R18M,2.53
22,R18D,2.87
23,R18F,2.4
24,R18S,2.56
25,R18G,2.72

row,Variant,protein stability index
1,R18C,2.32
2,R18L,1.73
3,R18K,2.79
4,R18T,2.61
5,R18E,2.59
6,R18I,2.08
7,R18W,2.34
8,R18N,3.21
9,R18P,2.48
10,R18Y,2.52
11,R18Q,2.56
12,R18H,2.62
13,R18A,2.53
14,R18V,2.36
15,S21L,2.14
16,S21V,2.65
17,S21N,2.98
18,S21G,2.29
19,S21T,2.15
20,S21R,2.58
21,S21P,2.08
22,S21Q,2.95
23,S21Y,1.87
24,S21F,1.91
25,S21E,2.85

row,Variant,protein stability index
1,S21I,2.61
2,S21A,2.48
3,S21H,2.53
4,S21K,2.77
5,S21C,3.33
6,S21D,2.61
7,S21W,1.61
8,S21M,2.13
9,I19N,2.97
10,I19G,3.27
11,I19A,3.26
12,I19V,3.18
13,I19Q,3.42
14,I19R,3.19
15,I19M,2.66
16,I19S,3.36
17,I19P,3.3
18,I19F,2.53
19,I19W,2.81
20,I19E,3.93
21,I19H,3.15
22,I19D,3.59
23,I19T,2.98
24,I19K,2.9
25,I19L,2.4

row,Variant,protein stability index
1,I19C,3.2
2,I19Y,2.34
3,R22C,2.36
4,R22P,2.89
5,R22N,2.82
6,R22W,1.71
7,R22K,3.08
8,R22F,2.09
9,R22E,2.89
10,R22I,2.24
11,R22H,2.39
12,R22L,1.43
13,R22D,2.8
14,R22V,2.32
15,R22S,2.08
16,R22M,2.22
17,R22T,2.38
18,R22Y,2.16
19,R22A,2.54
20,R22G,2.19
21,R22Q,2.28

# Variants of: B2
# Experiment: as above
# Settings: c terminus: a fixed tail appended
row,Variant,protein stability index
1,Q8E,3.48
2,Q8S,2.58
3,Q8C,2.24
4,Q8V,2.07
5,Q8T,1.7
6,Q8W,2.05
7,Q8H,3.22
8,Q8L,2.45
9,Q8P,1.95
10,Q8I,2.19
11,Q8F,2.24
12,Q8G,2.85
13,Q8M,2.85
14,Q8D,3.54
15,Q8A,2.77
16,Q8Y,2.55
17,Q8R,3.07
18,Q8K,2.33
19,Q8N,3.13
20,K7Q,2.98
21,K7L,2.95
22,K7D,3.69
23,K7E,3.84
24,K7N,3.78

row,Variant,protein stability index
1,K7A,3.37
2,K7T,2.64
3,K7H,3.36
4,K7V,2.54
5,K7P,3.19
6,K7G,3.26
7,K7C,2.92
8,K7F,2.71
9,K7S,2.53
10,K7M,3.17
11,K7Y,2.62
12,K7R,3.25
13,K7W,2.61
14,K7I,2.6
15,E5Y,2.21
16,E5R,1.93
17,E5Q,2.33
18,E5H,2.24
19,E5P,2.33
20,E5G,2.47
21,E5N,2.25
22,E5I,2.05
23,E5V,2.55
24,E5L,1.91

row,Variant,protein stability index
1,E5T,1.69
2,E5S,1.79
3,E5D,2.93
4,E5M,2.99
5,E5W,2.04
6,E5C,1.86
7,E5A,2.05
8,E5K,2.17
9,E5F,2.12
10,A3T,2.15
11,A3D,3.27
12,A3C,2.31
13,A3L,2.89
14,A3S,2.46
15,A3I,2.93
16,A3Q,2.86
17,A3H,2.02
18,A3F,2.71
19,A3W,2.85
20,A3Y,2.81
21,A3R,3.26
22,A3N,3.15
23,A3P,2.43
24,A3V,3

row,Variant,protein stability index
1,A3E,3.02
2,A3M,2.81
3,A3K,2.8
4,A3G,2.8
5,E4I,2.2
6,E4G,2.42
7,E4H,2.67
8,E4S,2.21
9,E4L,2.37
10,E4Q,2.39
11,E4F,1.92
12,E4N,2.36
13,E4T,2.1
14,E4K,2.04
15,E4Y,2.08
16,E4A,2.47
17,E4R,2.33
18,E4C,3.62
19,E4V,2.38
20,E4M,2.23
21,E4W,1.95
22,E4D,2.64
23,E4P,3.27
24,E2K,2.73

row,Variant,protein stability index
1,E2R,1.87
2,E2S,2.4
3,E2T,2.29
4,E2V,2.8
5,E2H,2.34
6,E2A,2.54
7,E2D,2.75
8,E2W,1.81
9,E2N,2.32
10,E2C,2.13
11,E2G,2.92
12,E2Q,2.53
13,E2I,2.27
14,E2P,2.83
15,E2L,2.08
16,E2M,2.98
17,E2F,2.14
18,E2Y,2.69
19,I9M,3.53
20,I9E,3.89
21,I9K,2.45
22,I9D,3.9
23,I9G,3.27
24,I9C,2.48

row,Variant,protein stability index
1,I9F,2.86
2,I9L,3.36
3,I9A,3.74
4,I9H,3.58
5,I9N,3.56
6,P1T,2.18
7,P1I,2.36
8,P1C,1.97
9,P1D,3.29
10,P1V,2.66
11,P1K,2.07
12,P1N,2.52
13,P1E,3.45
14,P1A,3.14
15,P1Y,3.2
16,P1L,2.76
17,P1F,2.44
18,P1R,2.59
19,P1Q,2.78
20,P1G,2.78
21,P1S,2.34
22,P1W,3.02
23,P1H,3.19
24,P1M,2.68

row,Variant,protein stability index
1,N6H,3.04
2,N6V,1.85
3,N6P,2.12
4,N6A,2.14
5,N6I,2.26
6,N6R,2.22
7,N6Y,3.05
8,N6M,2.39
9,N6Q,2.59
10,N6L,1.88
11,N6K,2.38
12,N6T,2
13,N6D,2.79
14,N6C,1.93
15,N6S,2.12
16,N6F,2.17
17,N6G,2.35
18,N6W,2.42
19,N6E,2.92
